Measurements reported in the nanobody polyreactivity screen of Harvey et al. (2022).

Test: yeast display, Sf9 membrane polyspecificity reagent, FACS + sequencing; frameworks hold sequencing errors
How it was run: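 In a synthetic yeast display library (Saccharomyces cerevisiae BJ5465), nanobody expression was induced with galactose for 36–48 hours. FACS gates were set low and high (top ~1%) using anti-HA fluorescence for expression and streptavidin fluorescence for binding of the Sf9 membrane reagent. Each polyreactivity label is drawn from the gate of origin.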

Sequence | polyreactivity (PSR sort gate)
QVQLVESGGGLVQAGGSLRLSCAASGFTFHNNVMGWYRQAPGKERELVATISKSGGSTYYADSVKGRFTISRDNAKNTVYLQMNSLKPEDTAVYYCAAETPTHDEWGQGTQVTVSS | high polyreactivity
QVQLVESGGGLVQAGGSLRLSCAASGFTFHNYAMGWYRQAPGKEREFVAAITRNTASTYYADSVKGRFTISRDNAKTTVYLQMISLKPEATAVYYCAATDKKHRTAYDSWGQRTQVTVSS | low polyreactivity
QVQLVESGGGLVQAGGSLRLSCAASGFTFHNYAMGWYRQAPGKERELVAAISASGSSTYYADSVKGRFTISRDNAKNTVYLQMNSLKPEDTAVYYCAAVGRYSPYGYWGQGTQVTVSS | high polyreactivity
QVQLVESGGGLVQAGGSLRLSCAASGFTFHQYTMGWYRQAPGKERELVAAISRSGYTNYADSVKGRFTISRDNAKNTVYLQMNSLKPEDTAVYYCNARSTRSRTYQSYDYWGQGTQVTVSS | high polyreactivity
QVQLVESGGGLVQAGGSLRLSCAASGFTFHRNAMGWYRQAPGKERELVAAISTRGGSTAYADSVKGRFTISRDNAKNTVYLQMNSLKPEDTAVYYCAAATSPGIYDYWGQGTQVTVSS | high polyreactivity
QVQLVESGGGLVQAGGSLRLSCAASGFTFHYNAMGWYRQAPGKERELVAAISRSGGITNYADSVKGRFTISRDNAKNTVYLQMNSLKPEDTAVYYCAAYLVVRIRYTQRYDYWGQGTQVTVSS | low polyreactivity
QVQLVESGGGLVQAGGSLRLSCAASGFTFHYYTMGWYRQAPGKERELVASINYSGGRTYYADSVKGRFTISRDNAKNTVYLQMNSLKPEDTAVYYCNARYKSTYYYWGQGTQVTVSS | high polyreactivity
QVQLVESGGGLVQAGGSLRLSCAASGFTFIFNAMGWNRQAPGKERELVATISSGGSTYYADSVKGRFTISRDNAKNTVYLQMNSLKPEDTAVYYCNTDDVGGYDYWGQGTQVTLSS | low polyreactivity
QVQLVESGGGLVQAGGSLRLSCAASGFTFIKYAMGWSRQAPGNEMEFVAAITRSGTSTYYADSVKGRFTISRDNAKNTVYLQMNSLKPEDTAVYYCAATYPRYYSGEFDYWGQGTLVTVSS | high polyreactivity
QVQLVESGGGLVQAGGSLRLSCAASGFTFIKYAMGWYRQATGNEREFVATISWNGGNTYYADSVKGRFTISRDNAKNTVYLQMNSLKPEDTAVYYCAARVKYRTRGGTVVSYDYWGQGTQVTVSS | high polyreactivity
QVQLVESGGGLVQAGGSLRLSCAASGFTFIRNAMGWYRQAPGKERELVAAISRSGGSTYYADSVKGRFTISRDNAKKTVYLQMNSQKPEDTAVYYCAVTLYLKWQGGAYDYWGQGTQVTVSS | low polyreactivity
QVQLVESGGGLVQAGGSLRLSCAASGFTFIRYAMGWYRQAPGKERELVATITRRGGSTYYADSVKGRFTISRDNAKNTVYLQMNSLKPEDTAVYYCNRDYVTYGKYYYWGQGTQVTVSS | high polyreactivity
QVQLVESGGGLVQAGGSLRLSCAASGFTFIRYAMGWYRQAPGKEREVVAAISWRVGITYYADSVKGRFTISRDNAKNTVYLQMNSQKPEDTAVYYCARDYRNPPFAYEYWGQGTQVTVSS | low polyreactivity
QVQLVESGGGLVQAGGSLRLSCAASGFTFIRYSMGWYRQAPGKERELVATISRSGGRTYYADSVKGRFTISRDNAKNTVYLQMNSLKPEDTAVYYCNAEAIVLNGGGYWGQGTQVTVSS | high polyreactivity
QVQLVESGGGLVQAGGSLRLSCAASGFTFISNAMGWYRQAPGKERELVAAISSSGGRTYYADSVKGRFTISRDNAKNTVYLQMNRLKPEDTAVYYCYADRSLLYSRKIEYDYWGQGTQVTVSS | low polyreactivity
QVQLVESGGGLVQAGGSLRLSCAASGFTFIYYAMGWYRQAPGKERELVAAISASGGSTYYADSVKGRFTISRDNAKNTVYLQMNSLKPEDTAVYYCAADALIYYKGSPDYYWGQGTQVTVSS | high polyreactivity

Sequence | polyreactivity (PSR sort gate)
QVQLVESGGGLVQAGGSLRLSCAASGFTFKCYTMGWYRQAPGKERELVAGISRRGGSTYYADSVKGRFTISRDNAKNTVYLQMNSLKPEDTAVYDCAADSQLTKFYYWGQGSQVTVSS | high polyreactivity
QVQLVESGGGLVQAGGSLRLSCAASGFTFKGNAMGWYRQAPGTERELVATITQSAGSTYYADSVKGRFTISRDNAKNTVYLEMNSLKPEDTAVYYCNADPITLYYYSWYNYWGQGTQVTVSS | low polyreactivity
QVQLVESGGGLVQAGGSLRLSCAASGFTFKNNAMGWYRQAPGKEREFVASISSGSTNYADSVKGRFTISRDNAKYTVYLQMNSLKPEDTEVYYCIRAPYRYSEPDYRSDFWGQGTQVTVSS | low polyreactivity
QVQLVESGGGLVQAGGSLRLSCAASGFTFKQYGMGWYRQAPGKERELVASISYRGGSTHYADSVKGRFTISRDNAKKTVYLQMNSLKPEDTAVYYCAARVTSRTSIKGDYWGQGTQVTVSS | low polyreactivity
QVQLVESGGGLVQAGGSLRLSCAASGFTFKSYAMGWYRQAPGKERELVAAISRGTSTKYADSVKGRFTISRDNAKNTVYLQMNSLKPEDTAVYYCAALFPTSDLRLRYYRYDYWGQGTQVTVSS | low polyreactivity
QVQLVESGGGLVQAGGSLRLSCAASGFTFKSYGMGWYRQAPGKERELVAAISKSGGRTYYADSVKGRFTISRDNAKNTVYLQMNSLKPEDTAVYYCAARVYGVDGYGYWGQGTQVTVSS | high polyreactivity
QVQLVESGGGLVQAGGSLRLSCAASGFTFKYTDMGWYRQAPGKERELVAAINWRGGSTYYADSLKGRFTISRDNAKNTVYLQMNSLKPEDTAFYYCNLVYRPSRYDYWGQGTQVTVSS | high polyreactivity
QVQLVESGGGLVQAGGSLRLSCAASGFTFKYYSMGRYRQAPGKERELVAAISRGGRTNYADSVKGRFTISRDNAKNTVYLQMNSLKPEDTAVYYCAADGIYALFFTSGGIWFDYWGEGTQVTVSS | low polyreactivity
QVQLVESGGGLVQAGGSLRLSCAASGFTFKYYTMGWYRHAPGKETELDAVITRSGGSTYADSVKGRFTISRDNAKNTVYLQMNSLKPVDTAVYYCAKGAAGINLVRHDYWGQVTQVTVSS | high polyreactivity
QVQLVESGGGLVQAGGSLRLSCAASGFTFKYYTMGWYRQAPGKERELVAAISKSGDITYYADSVKGRFTISRDNAKNTVYLQMNSLKPEDTAVYYCAAVGRVSYNRFDYWGQGTQVTVSS | high polyreactivity
QVQLVESGGGLVQAGGSLRLSCAASGFTFKYYTMGWYRQAPGKERELVAAISSAASTNYADSVKGRFTISRDNAKNTVYLQMNSLKPEDTAVYYCNADITGWARIRYQWIRQYDYWGQGTQVTVSS | high polyreactivity
QVQLVESGGGLVQAGGSLRLSCAASGFTFLAYAMGWYRQAPGKERELGAAISKSGGSTYYADSVKGRFTISRDNAKITVYLQMNSLKPEDTAVYYCNAGRRIKFYGSYDYWGQGTQVTVSS | high polyreactivity
QVQLVESGGGLVQAGGSLRLSCAASGFTFLAYAMGWYRQAPGKERELVAAISRSGGRTYYADSVKGRFTISRDNAKNTVYLQMNSLNPEDTAVYYCAAPPRANLFDYWGQGTQVTVSS | high polyreactivity
QVQLVESGGGLVQAGGSLRLSCAASGFTFLFYAKGWYRHAPGKEMELVAAISWSGDTTYYADSVKGRFTISLDNSKNTVYLQMNSLKPEDTAVYYCNAESNIFGYDYWGQGTQVTVTS | high polyreactivity
QVQLVESGGGLVQAGGSLRLSCAASGFTFLINAMGWYRQAPGKERELVAAIRSGGSTNYADSVKGRFTISRDNAKNTVYFQMNSLKPEDTAVYYCAARRYYPYKYRYGYWGQGTQVTVSS | high polyreactivity
QVQLVESGGGLVQAGGSLRLSCAASGFTFLIYAMGWYRQAPGKERELVAAITWRGSGTYYADSVKGRFTISRDNAKNTVYLQMNSLNPEDTAVFYCGARTARRTYDYWGQGTQVTVSS | low polyreactivity
